B1: TPR t1 (parent)
chain: GACCAAUCUGCCCUCAGAGCUCGAGAACAUCUUCGGAUGCAGAGGAGGCAGGCUUCGGUGGCGCGAUAGCGCCAACGUCCUCAACCUCCAAUGCAUCCCACCACAUGAUGAUGCCUGAAGAGCCUUGGUUUUUUG

Variants of: B1
Experiment: polymerase ribozyme fitness, log enrichment relative to wild type (log ratio); higher = more active; in vitro selection for triplet polymerase activity
Summary of the method: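 After PCR construction and transcription, each subunit's mutant library from a heterodimeric triplet polymerase ribozyme was annealed with a biotinylated primer, the partner subunit and triplets. Incubation was frozen, at −7 °C, and extended constructs were gel-excised, bound to streptavidin beads and amplified by RT-PCR, in one selection round done in triplicate. Fitness is the logarithm of a genotype's enrichment divided by that of the wild type, from inverse-variance-weighted replicate averages of Illumina-sequenced inputs and outputs. The base of the logarithm is 2, and genotypes needed ≥10 input reads and ≥1 read per output.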

Variant | polymerase ribozyme fitness (log ratio)
GAACAAUCUGCCCUCAGAGCUCGAGAACAUCUUCGGAUGCAGGGGAGGCAGGCUUCGGUGGCGCGAUAGCGCCAACGUCCUCAACCUCCAAUGGAUCCCACCACAUGAUGAUGUCUGAAGAGCCUUGGUUUUUUG [C3A A43G C94G C114U] | -3.66
GACCAAUCUGCCCUCAGAGCUCGAGAACAUCUUCGGAUGCAGAGGAGGCAGGCUUCGGUGACGCGAUAGCGCCAACGUCCGCAACCUCCAAUGCAUCCCACCACAUGAUGAUGCCGGAAGAGCAUUGGUUUUUUG [G61A U81G U116G C124A] | -2.39
GACCAAUCUGCCGUCAGAGCUCGAGAACAUCUUCGGAUGCAGAGGAGGCAGGCUUCGGUGGCGCGAUAGCGCCAAUGUCCUCAACCUCCAAUGCAUCCCACCACAUGAUGAUGCCUGAAGAGCCUUGGUUUUUUG [C13G C76U] | -1.95
GACCAAUCUGCCCUCAGAGCUCGAGAACAUCUUCGGAUGCAGAGGAGGCAGGCUUCGGUGACGCGAUAGCGCCAACGUUCUCAACCUCCAAUGCAUCCCACCACAUGAUGAUGCCUGAAGAGCCUUGGUUUUUUG [G61A C79U] | -0.164
GACCAAUCUGCCCUCAGAGCUCGAGAACAUCUUCGGAUGCAGAGGAGGCAGGCUUCGGUGGCUCGAUAGCGCCAACGUCCUCAACCUCCAAUGCAUCCCACCACAUGAUGAUGCUUGAAGAGCCUUGGUUUUUUG [G63U C115U] | -3.37
GACCAAUCUGGCCUCAGAGCUUGAGAACAUCUUCGGAUGCAGAGGAGGCAGGCUUCGGUGGCGCGAUAGCGCCAACGUCCUCAACCUCCAAUGCAUCCCACCACAUGAUGAUUCCUGAGGAGCCUUGGUUUUUUG [C11G C22U G113U A119G] | -5.79
GACCAAUAUGCCCUCAGAGCUCGAGAACAUCUUCGGAUGCAGAGGAGUCAGGCUUCGGUGGCGCGAUAGCGCCAACGUCCUCAACCUCCAAUGCAUCCCACCACAUGAUGAUGCCUGAAGAGCCUUGGUUUUUUG [C8A G48U] | -0.337
GACCAAUCUGCGCUCAGAGCUCGAGAAGAUCUUCGGAUGCAGAGGAGGCAGGCUUCGGUGGCGCGAUAGCGCCAACGUCCUCAACCUCCAAUGCAUCCCACCACAUGAUGAUGCCUGAAGAGCCUUGGUUUUUUG [C12G C28G] | -1.82
GACCAAUCUGCCCUCAGAGCUCGAGAACAUCUUCGGAUGAAGAGGAGGCAGGCUUCGGUGUCGCGAUAGCGCCAACGUCCUCAACCUCCAAUCGAUCCCACCACAUGAUGAUGCCUGAAGAGCUUUGGUUUUUUG [C40A G61U G93C C94G C124U] | -1.28
GACCAAUCUGCCCUCAGAGCUCGAGAACAUCUUCGGAUGCAGAAGAGGCAGGCUUCGGUGGCGAGAUAGCGCCAAAGUCCUCAACCUCCAAUGCAUCCCACCACAUGAUGAUGCCUGAAGAGCCUUGGUUUUUUG [G44A C64A C76A] | -6.8
GCCCAAUCUGCCCUCAGAGCUCGAGAACAUCUUCGGAUGCAGAGGAGGCAGGCUUCGGUGGCGCGAUAGCGCCAACGUCCUCAACCUCCAAUGCAUCCCACCACAUGAUGAUGCAUGAAGAGCCUUGGUUUUUUG [A2C C115A] | -1.3
GACCAAUCUGCCCUCAUAGCUCGAGAACAUCUUCGGAUGCAGAGGAGGCAGGCUUCGGUGGCGCGAUAGCGCCAACGUCCUCAACCUCCAAUGCAUCCCACCACAUGAUGAUGGCUGAAGAGCCUUGGUUUAUUG [G17U C114G U132A] | -5.35
GACCAAUCUGCCCUCAGAGCUCGAGAACAUCUUCGGAUGCAGAUGAGUCAGGCUUCGGUGGCGCGAUAGCGCCAACGUCCUCAACCUCCAAUGCAUCCCACCACAUGAUGAUGACUGAAGAGCCUUGGUUUUUUG [G44U G48U C114A] | -2.93
GACCAAUCUGCCCUCAGAGCUCGAGAACAUCUUCGGAUGCAGAGGAGGCAGGCUUCGGAGGCGCGAUAGCGCCAACGUCCUUAACCUCCAAUGCAUCCCACCACAUGAUGGUGCCUGAAGAGCCUUGGUUUUUUG [U59A C82U A111G] | -0.386
GACCAAUCUGCCCUCAGAGCUCGAGAACAUCUUCGGAUGCAGAGGUGCCAGGCUUCGGUGGCGCGAUAGCGCCAACGUCCUCAACCUCCAAUGCAUCCCACCACAUGAUGAUGCCUGAAGAGCCUUGUUUUUUUG [A46U G48C G128U] | -3.83
GACCAAUCUGCCCUCAGAGCUCGAGAACAUCUUCGGAUGCAGAGUAGGCAGGCUUCGGUGGCGCGAUAGCGCCAACGCACUCAACCUCCAAUGCAUCCCACCACAUGAUGAUGCCUGAAGAGACUCGGUUUUUUG [G45U U78C C79A C123A U126C] | -3.45
GACCAAUCUGUCCUCAGAGCUCGAGAACAUCUUCGGAUGCAGAGGAGGCAGGCUUCGAUGGCGCGAUAUCGCCAACGUCCUCAACCUCCAAUGCAUCCCACCACAUGAUGAUGCCUGAAGAGCCUUGGUUUUUUG [C11U G58A G69U] | -0.296
GACCAAUCUGGCCUCCGAGCUCGAGAACGUCUUCGGAUGCAGAGUAGGCAGGCUUCGGUGGCGCGAUAGCGCCAACGUCCUCAACCUCCAAUGCAUCCCACCACAUGAUGAUGCCUGAAGAGCCUUGGUUUUUUG [C11G A16C A29G G45U] | -4.19
GACCAAUCUGCCCUCAGAGCUCGAGAACAUCUUCGGAUGCAGAGGAGGUAGGCUUCGGUGGCGCGAUAGCGCAAACGUCCUCAACCUCCAAUGCAUCCCACUACAUGAUGAUGCCUGAAGAGCCUUGGUUUUUUG [C49U C73A C102U] | -2.56
GACCAAUCUGCCCUCAGACCUCGAGAACAUCUUCGGAUGCAGAGAAGGCAGGCUUCGGUGGCGCGAUAGCGACAACGUCCUCAACCUCCAAUGCAUCCCACCACAUGAUGAUGCCUGAACAGCCUUGGUUUUUUG [G19C G45A C72A G120C] | -1.67
GACCAAUCUGCCCUCAGAGCUCGAGAACAUCUUCGGAUUCAGAGGAGGCAGGCUUCGGUGGCGCGAUAGCGCCAACGUCCUCAACCUCCAAUGGAUCCCACCACAUGAUAAUGCCUGAAGAGCCUUGGUUUUUUG [G39U C94G G110A] | -1.31

— the RNAGym collection of RNA variant scans (doi:10.1073/pnas.2313332121)
